Laboratory results reported in PMC7521798 (Molecular Biology of the Cell, 2020).

Molecular target: GFP-IQGAP1 ∆GRD (1004–1237 aa deleted) (UniProt P46940 1-1657, 1004–1237 aa deleted)
Assay: co-IP

fold less association with R-ras than IQGAP1, IQGAP1 ∆IQ or IQGAP1 ∆WW: 5 fold
B1: R-ras (natural protein, mouse (endogenous in NIH-3T3 and MEFs), UniProt P10833 1-218, looked up)
chain: MSSGAASGTGRGRPRGGGPGPRDPPPGETHKLVVVGGGGVGKSALTIQFIQSYFVSDYDPTIEDSYTKICTVDGIPARLDILDTAGQEEFGAMREQYMRAGNGFLLVFAINDRQSFNEVGKLFTQILRVKDRDDFPIVLVGNKADLENQRQVLRSEASSFSASHHMTYFEASAKLRLNVDEAFEQLVRAVRKYQEQELPPSPPSAPRKKDGGCPCVLL
